T1: CasΦ.12 (in cells) (Unknown)
T1 chain: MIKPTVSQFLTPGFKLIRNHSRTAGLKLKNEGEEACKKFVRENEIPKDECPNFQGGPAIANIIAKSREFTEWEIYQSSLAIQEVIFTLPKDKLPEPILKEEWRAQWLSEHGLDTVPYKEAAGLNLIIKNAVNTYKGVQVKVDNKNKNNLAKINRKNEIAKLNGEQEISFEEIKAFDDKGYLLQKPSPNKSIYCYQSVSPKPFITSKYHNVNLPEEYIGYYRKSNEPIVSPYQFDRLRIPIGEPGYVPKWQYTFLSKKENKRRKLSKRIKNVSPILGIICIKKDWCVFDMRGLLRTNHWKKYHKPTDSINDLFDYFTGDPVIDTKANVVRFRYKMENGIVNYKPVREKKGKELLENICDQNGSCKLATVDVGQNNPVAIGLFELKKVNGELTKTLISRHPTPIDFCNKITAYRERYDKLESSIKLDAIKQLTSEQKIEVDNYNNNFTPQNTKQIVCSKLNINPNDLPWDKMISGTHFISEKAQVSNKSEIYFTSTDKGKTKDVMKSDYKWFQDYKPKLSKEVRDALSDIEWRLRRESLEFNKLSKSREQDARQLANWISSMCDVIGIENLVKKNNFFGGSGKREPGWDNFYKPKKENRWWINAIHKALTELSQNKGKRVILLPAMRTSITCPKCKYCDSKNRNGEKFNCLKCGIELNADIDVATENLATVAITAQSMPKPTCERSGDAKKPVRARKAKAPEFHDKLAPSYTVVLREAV


Biological target: T1, CasΦ.12 (in cells)
Test: cell_activity; T cells, RNP nucleofection; PAM NTTN
Experimental: This example illustrates the ability of CasΦ RNP complexes to knockout multiple genes simultaneously. In this study, gRNAs targeting B2M, TRAC and PDCD1 (provided in Table 15) were incubated with CasΦ.12 (SEQ ID NO: 12) for 10 minutes at room temperature to form B2M, TRAC, and PDC1 targeting RNPs, respectively. The B2M targeting RNPs, TRAC targeting RNPs, PDCD1 targeting RNPs and combinations thereof were added to T cells. T cells were resuspended at 5×10⁵ cells/20 μL in Nucleofection P3 solution and an Amaxa 4D 96-well electroporation system with pulse code EH115 was used to nucleofect the cells. Immediately after nucleofection, 85 μl pre-warmed culture medium was added to each well. The cells were then left in the cuvette plate for 10 minutes before transfer to the culture plate. On Day 3, genomic DNA was extracted and sent for NGS sequencing and the % indel was measured with a positive % indel being indicative of % knockout. On Day 5, cells were harvested for flow cytometry and the % knockout was measured with fluorescently labeled antibodies to TRAC and B2M (antibody to PDCD1 unavailable). % indel results are presented in Table 16 and flow cytometry data presented in Table 17.

| Binder | activity [% indel] |
| --- | --- |
| TRAC gRNA R3042 ; TRAC target (ssRNA ; dsDNA) RNA: CUUUCAAGACUAAUAGAUUGCUCCUUACGAGGAGACGAGUCUCUCAGCUGGUACAC DNA 1: GAGTCTCTCAGCTGGTACAC DNA 2: GTGTACCAGCTGAGAGACTC | 77.6 |
| PDCD1 gRNA R2925 ; PDCD1 target (ssRNA ; dsDNA) RNA: CUUUCAAGACUAAUAGAUUGCUCCUUACGAGGAGACUAGCACCGCCCAGACGACUG DNA 1: TAGCACCGCCCAGACGACTG DNA 2: CAGTCGTCTGGGCGGTGCTA | 44.6 |
| B2M gRNA R3132 ; B2M target (ssRNA ; dsDNA) RNA: CUUUCAAGACUAAUAGAUUGCUCCUUACGAGGAGACAGCAAGGACUGGUCUUUCUA DNA 1: AGCAAGGACTGGTCTTTCTA DNA 2: TAGAAAGACCAGTCCTTGCT | 85.5 |
